According to patent EP1595946A2 (Sugen, Inc., dated 2005):

Molecular target: T1, SULU1-coiled-coil2 GST fusion (Construct 1; amino acids 752-898) (human, UniProt Q5R4F3 752-898 (Pongo abelii entry))
T1 construct: Immobilised bait in T7 phage display; also called SULU1 ccl; not shown: glutathione S-transferase (GST) of vector pGEX-4T; baits were made as C-terminal fusions to GST, expressed in E. coli
T1 sequence: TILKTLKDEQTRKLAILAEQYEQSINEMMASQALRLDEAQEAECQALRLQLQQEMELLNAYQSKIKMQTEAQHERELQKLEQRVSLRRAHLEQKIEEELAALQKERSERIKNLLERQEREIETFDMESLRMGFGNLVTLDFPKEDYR
Assay: T7 phage display, H441 cDNA library, GST-fused bait; interactor listed

B1: GEK2 coiled-coil domain displayed on T7 phage (677-820 of SEQ #26) (other)
chain: KESMKQKMEEHTQKKQLLDRDFVAKQKEDLELAMKRLTTDNRREICDKERECLMKKQELLRDREAALWEMEEHQLQERHQLVKQQLKDQYFLQRHELLRKHEKEREQMQRYNQRMIEQLKVRQQQEKARLPKIQRSEGKTRMAM
notes: also called GEK2 cc dom; GEK2 CC1; not shown: T7 phage coat protein of vector T7Select1-1b to which the cDNA fragment is fused
Q: Does B1 bind?
A: binds
